Laboratory results reported in US20230293738A1 (Y MABS THERAPEUTICS, published 2023).
Where “and” joins values, the source holds several entries; their conditions need not be identical. Equal entries are not always repeated. Where two headings read alike, the source gives them in different places.

Assays:
[1] = molecular target: T1, human 4Ig-B7H3 (B7H3-4Ig-His) (human, UniProt Q5ZPR3 29-466); experiment: SPR, Biacore T200, 4Ig-B7H3-His on CM5 chip, 1:1 fit
T1 construct: Recombinant His-tagged protein immobilised on a CM5 chip; also called 41g-B7H3; human 4Ig-B7-H3 (dominant isoform); not shown: His tag
T1 sequence: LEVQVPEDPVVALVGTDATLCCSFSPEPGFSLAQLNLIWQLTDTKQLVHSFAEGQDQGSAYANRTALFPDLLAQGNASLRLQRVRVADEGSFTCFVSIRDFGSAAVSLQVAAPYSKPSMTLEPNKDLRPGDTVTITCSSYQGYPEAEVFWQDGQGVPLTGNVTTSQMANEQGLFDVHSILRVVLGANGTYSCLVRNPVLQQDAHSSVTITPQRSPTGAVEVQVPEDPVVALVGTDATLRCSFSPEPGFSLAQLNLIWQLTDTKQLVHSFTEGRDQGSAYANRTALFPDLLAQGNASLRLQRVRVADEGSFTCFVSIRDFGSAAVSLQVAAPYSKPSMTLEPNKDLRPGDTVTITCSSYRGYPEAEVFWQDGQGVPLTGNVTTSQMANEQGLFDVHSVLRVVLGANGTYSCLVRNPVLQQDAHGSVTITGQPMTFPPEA
Description: (§1) Both human B7H3 41g and 21g proteins were dissolved in PBS (Phosphate-Buffered Saline) to make 0.1 mg/ml stock solution and stored in −80° C. B7-H3 proteins were immobilized onto the CM5 sensor chip using Amine Coupling Kit. Both proteins were diluted to 10 ug/ml with 10 mM Sodium acetate, pH 5.0. […] A blank immobilized surface was used as a control
(§2) Binding Assays: [0143] 1. Antibodies were diluted in HBS-EP buffer (10 mM HEPES, 150 mM NaCl, 3 mM EDTA, 0.05% Surfactant P20, pH 7.4) at varying concentrations (25-50-100-200-400 nM) prior to analysis. […] 2. Samples (60 ul) were injected over the sensor surface at a flow rate of 30 ul/min over 2 min. [0145] 3. Following completion of the association phase, dissociation was monitored in HBS-EP buffer for 10 min at the same flow rate. […] 4. At the end of each cycle, the surface was regenerated using 10 mM NaOH at a flow rate of 50 ul/min over 2×15 sec.

[2] = molecular target: T1, human 4Ig-B7H3 (B7H3-4Ig-His); experiment: as above; remark: listed apart in the source
Description: as §1
(§3) The data were analyzed by the 1:1 fitting model and default parameter setting for the rate constants using the Biacore T200 Evaluation Software, and the apparent association on rate constant (kon, ka), dissociation off rate constant (koff, kd) and equilibrium dissociation constant (KD=kd/ka) were calculated.

[3] = molecular target: T2, human 2Ig-B7H3 (B7H3-2Ig-His) (human, UniProt Q5ZPR3 29-466); experiment: SPR, Biacore T200, 2Ig-B7H3-His on CM5 chip, 1:1 fit; * beyond fitting limits
T2 construct: Recombinant His-tagged protein immobilised on a CM5 chip; also called 21g-B7H3; B7H3-21g-His; not shown: His tag
T2 sequence: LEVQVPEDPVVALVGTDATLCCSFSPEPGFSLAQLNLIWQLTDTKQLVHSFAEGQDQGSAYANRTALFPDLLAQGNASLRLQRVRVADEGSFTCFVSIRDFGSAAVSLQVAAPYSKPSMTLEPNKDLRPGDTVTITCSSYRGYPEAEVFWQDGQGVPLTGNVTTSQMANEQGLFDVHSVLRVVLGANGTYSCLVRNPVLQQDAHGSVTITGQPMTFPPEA
Description: as §1, §2, §3

[4] = molecular target: T2, human 2Ig-B7H3 (B7H3-2Ig-His); experiment: SPR, Biacore T200, 2Ig-B7H3-His on CM5 chip, 1:1 fit; * beyond fitting limits; unconjugated 8H9, lot S219, Table 5 run

Kd [1]: 4.07 nM and 3.78 nM and 3.69 nM
koff [1]: 0.000102 s⁻¹ and 0.000101 s⁻¹ and 9.48e-05 s⁻¹
kon [1]: 25200 M⁻¹ s⁻¹ and 26700 M⁻¹ s⁻¹ and 25700 M⁻¹ s⁻¹
t ½ [1]: 1.88 h and 1.91 h and 2.03 h
Kd [2]: 3.18 nM and 3.13 nM
koff [2]: 9.11e-05 s⁻¹ and 8.73e-05 s⁻¹
kon [2]: 28600 M⁻¹ s⁻¹ and 27900 M⁻¹ s⁻¹
t ½ [2]: 2.11 h and 2.21 h
koff [3]: 2.38e-07 s⁻¹ and 5.68e-07 s⁻¹
koff [4]: < 1e-05 s⁻¹
B1: 8H9 antibody comprising a light chain according to SEQ ID No.: 2 and heavy chain according to SEQ ID No.: 1 (antibody, mouse IgG1, kappa, V domains shown)
VH: QVQLQQSGAELVKPGASVKLSCKASGYTFTNYDINWVRQRPEQGLEWIGWIFPGDGSTQYNEKFKGKATLTTDTSSSTAYMQLSRLTSEDSAVYFCARQTTATWFAYWGQGTLVTVSA
VL: DIVMTQSPATLSVTPGDRVSLSCRASQSISDYLHWYQQKSHESPRLLIKYASQSISGIPSRFSGSGSGSDFTLSINSVEPEDVGVYYCQNGHSFPLTFGAGTKLELKR
notes: Unconjugated mouse IgG1 mAb; also called m8H9; murine 8H9
